T1: XENP23311 (His-tagged NKG2D-Fc) (human, UniProt P26718 78-216)
T1 chain: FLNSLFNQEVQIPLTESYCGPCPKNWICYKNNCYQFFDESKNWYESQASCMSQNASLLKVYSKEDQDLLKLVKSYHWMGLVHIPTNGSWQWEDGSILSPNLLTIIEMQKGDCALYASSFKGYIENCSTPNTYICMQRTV

B1: XENP41022 (antibody)
chain 1: EVQLLESGGGLVQPGGSLRLSCAVSGFSLSSYGVIWVRQAPGKGLEYVSWVSSGGSTNYASSVKGRFTISRDTSKNTVYLQMNSLRAEDTAVYFCARGATNSGTDIWGPGTLVTVSSASTKGPSVFPLAPSSKSTSGGTAALGCLVKDYFPEPVTVSWNSGALTSGVHTFPAVLQSSGLYSLSSVVTVPSSSLGTQTYICNVNHKPSDTKVDKKVEPKSCDKTHTCPPCPAPELLGGPDVFLFPPKPKDTLMISRTPEVTCVVVDVSHEDPEVKFNWYVDGVEVHNAKTKPREEEYNSTYRVVSVLTVLHQDWLNGKEYKCKVSNKALPAPEEKTISKAKGQPREPQVYTLPPSREEMTKNQVSLTCDVSGFYPSDIAVEWESDGQPENNYKTTPPVLDSDGSFFLYSKLTVDKSRWEQGDVFSCSVMHEALHNHYTQKSLSLSPGK
chain 2: EVQLLESGGGLVQPGGSLRLSCAVSGFSLSSYGVIWVRQAPGKGLEYVSWVSSGGSTNYASSVKGRFTISRDTSKNTVYLQMNSLRAEDTAVYFCARGATNSGTDIWGPGTLVTVSSGKPGSGKPGSGKPGSGKPGSDIVMTQSPSSLSASVGDRVTITCRASQSINSWLSWYQQKPGKPPKLLIYGASNLASGVPSRFKGSGSGTDFTLTISSLQPEDFATYYCQNNYGIIAAGATFGGGTKVEIKEPKSSDKTHTCPPCPAPELLGGPDVFLFPPKPKDTLMISRTPEVTCVVVDVSHEDPEVKFNWYVDGVEVHNAKTKPREEQYNSTYRVVSVLTVLHQDWLNGKEYKCKVSNKALPAPEEKTISKAKGQPREPQVYTLPPSREQMTKNQVKLTCLVKGFYPSDIAVEWESNGQPENNYKTTPPVLDSDGSFFLYSKLTVDKSRWQQGNVFSCSVMHEALHNHYTQKSLSLSPGK
chain 3: DIVMTQSPSSLSASVGDRVTITCRASQSINSWLSWYQQKPGKPPKLLIYGASNLASGVPSRFKGSGSGTDFTLTISSLQPEDFATYYCQNNYGIIAAGATFGGGTKVEIKRTVAAPSVFIFPPSDEQLKSGTASVVCLLNNFYPREAKVQWKVDNALQSGNSQESVTEQDSKDSTYSLSSTLTLSKADYEKHKVYACEVTHQGLSSPVTKSFNRGEC
B2: XENP41026 (antibody)
chain 1: B1 chain 1 with D239S, E332I
chain 2: B1 chain 2 with E364I
chain 3: B1 chain 3
B3: XENP41031 (antibody)
chain 1: B1 chain 1
chain 2: B1 chain 2 with E364I
chain 3: B1 chain 3
B4: XENP41033 (antibody)
chain 1: B1 chain 1 with E332I
chain 2: B1 chain 2
chain 3: B1 chain 3
B5: XENP41027 (antibody)
chain 1: B1 chain 1 with D239S, E332I
chain 2: B1 chain 2 with D271S
chain 3: B1 chain 3
B6: XENP41028 (antibody)
chain 1: B1 chain 1
chain 2: not shown
chain 3: B1 chain 3
B7: XENP41021 (antibody)
chain 1: B1 chain 1 with D239S, E332I
chain 2: not shown
chain 3: B1 chain 3
B8: XENP41032 (antibody)
chain 1: B1 chain 1
chain 2: B1 chain 2 with D271S
chain 3: B1 chain 3
B9: XENP41030 (antibody)
chain 1: B1 chain 1 with D239S
chain 2: not shown
chain 3: B1 chain 3
B10: XENP41029 (antibody)
chain 1: B1 chain 1 with E332I
chain 2: not shown
chain 3: B1 chain 3
B11: XENP41034 (antibody)
chain 1: B1 chain 1 with D239S
chain 2: B1 chain 2
chain 3: B1 chain 3
B12: XENP41024 (antibody)
chain 1: B1 chain 1 with D239S
chain 2: B1 chain 2 with D271S
chain 3: B1 chain 3
B13: XENP41025 (antibody)
chain 1: B1 chain 1 with D239S, E332I
chain 2: B1 chain 2
chain 3: B1 chain 3
B14: XENP41035 (antibody)
chain 1: B1 chain 1 with E332I
chain 2: B1 chain 2 with D271S
chain 3: B1 chain 3
B15: XENP41339 (1D2B4, 2+1 VLVH) (antibody)
chain 1: B1 chain 1 with D239S, E332I
chain 2: not shown
chain 3: B1 chain 3

Where a chain is given by its changes, count along the chain named.

For one assay, the target named is CD16 (UniProt P08637 17-208).
CD16, sequence (P08637 17-208): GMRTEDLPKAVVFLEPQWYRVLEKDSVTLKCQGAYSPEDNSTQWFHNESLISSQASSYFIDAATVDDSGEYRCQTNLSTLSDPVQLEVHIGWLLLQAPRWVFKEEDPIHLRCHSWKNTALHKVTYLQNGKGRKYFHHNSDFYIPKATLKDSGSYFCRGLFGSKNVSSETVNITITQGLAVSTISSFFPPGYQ
Assay: not given
Consider B1, for which the affinity, expressed as Kd, was 28.9 nM.

The molecule B2 had a Kd of 219 nM.

B3 returned a Kd of 55.2 nM.

Molecule B4 came in with a Kd of 59.9 nM.

In turn, B5 registered a Kd of 242 nM.

Regarding B6, the affinity, expressed as Kd, was 120 nM.

In the case of B7, the Kd stood at 417 nM.

In turn, B8 registered a Kd of 60.2 nM. This Kd lies about 6.9-fold lower than the previous one.

The molecule B9 came in with a Kd of 203 nM.

Turning to B10, the affinity, expressed as Kd, was 229 nM.

For B11, the Kd is 64.6 nM.

As to B12, the Kd came to 120 nM.

As for B13, the affinity, expressed as Kd, was 136 nM.

With B14, the Kd worked out at 100 nM.

Another assay addresses T1, XENP23311 (His-tagged NKG2D-Fc). Nature of the assay: Octet.
Take B15: the affinity, expressed as Kd, was 83.1 nM. This lies in the double-digit nanomolar range.

By Kd is commonly meant the free concentration of one partner at which half of the binding sites on the other are occupied at equilibrium, for simple one-to-one binding. High values mean lower affinity, low ones higher affinity.

(Values after patent US20230151095A1 (published 2023).)
